Laboratory results: patent US20180162944A1 (WUXI BIOLOGICS SHANGHAI, published 2018)

What was measured:
[1] = target: T1, human PD-L1 expressed on cells (CHO / CHO-K1 cells transfected with full-length human PD-L1); native PD-L1 on … (human, UniProt Q9NZQ7 19-290); assay: FACS, CHO cells transfected with full-length human PD-L1, MFI against antibody concentration
T1 construct: whole, on cells; also called PD-L1 expressing CHO cell; PD-L1 transfected CHO cells

recombinant human PD-L1 = target: T2, recombinant human PD-L1 (human, UniProt Q9NZQ7 19-238); assay: SPR (ProteOn XPR36), antibody captured on Protein A, human PD-L1 as analyte, 1:1 Langmuir fit
T2 construct: the whole natural entry is named
Description: 3.2. […] Protein A protein (Sigma) was immobilized to a GLM sensor chip (Bio-Rad) through amine coupling. Purified antibodies were flowed over the sensor chip and captured by the Protein A. The chip was rotated 90° and washed with running buffer (1×PBS/0.01% Tween20, Bio-Rad) until the baseline is stable. Five concentrations of human PD-L1 and running buffer were flowed against the antibody flow cell at a flow rate 100 μL/min for an association phase of 240s, followed by 600s dissociation. The chip was regenerated with pH 1.7 H₃PO₄ after each run. The association and dissociation curve was fit to a 1:1 Langmuir binding model using ProteOn software.

[2] = target: T3, PD-L2 expressed on transfected CHO cells (Homo sapiens (Human), UniProt Q9BQ51 20-273); assay: FACS, PD-L2 transfected CHO-K1 cells, single staining, concentration not shown
T3 sequence: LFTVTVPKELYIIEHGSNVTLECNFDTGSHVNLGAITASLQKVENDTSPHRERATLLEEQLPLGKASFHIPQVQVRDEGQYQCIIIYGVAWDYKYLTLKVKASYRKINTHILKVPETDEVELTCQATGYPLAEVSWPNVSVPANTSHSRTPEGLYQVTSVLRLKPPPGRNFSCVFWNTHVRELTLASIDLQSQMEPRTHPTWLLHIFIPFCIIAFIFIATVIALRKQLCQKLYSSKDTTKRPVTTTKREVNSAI
Description: 3.8. Cross-family binding assay by FACS: to examine the cross-family binding activity of the humanized antibodies, cells lines that express PD-L2 were stained with the humanized antibodies, followed by 2nd antibody staining with FITC conjugated goat anti-human IgG Fc. PD-L1 expressing cells were used as positive control. Corresponding parental cell lines were used as negative controls. The stained cells were analyzed by using a BD Biosciences FACSCanto II and FlowJo Version software.
CHO cells transfected with PD-L1 or PD-L2 were stained with humanized PD-L1 antibodies and analysis by FACS.

[3] = target: T1, human PD-L1 expressed on cells (CHO / …); assay: FACS competition on human PD-L1 expressing CHO cells; blocked ligand: mouse Fc-tagged human PD-1; bottom panel
[4] = target: T1, human PD-L1 expressed on cells (CHO / …); assay: FACS, native PD-L1 on human monocyte-derived dendritic cells, MFI against antibody concentration
murine PD-L1 [5] = target: T4, murine PD-L1 (mouse, UniProt Q9EP73 19-239, limits assumed); assay: ELISA or FACS
T4 construct: also called mouse PD-L1

cynomolgus monkey PD-L1 [6] = target: T5, cynomolgus monkey PD-L1 (cynomolgus monkey, UniProt G7PSE7 19-238); assay: ELISA, cynomolgus PD-L1 coated on the plate, OD450 against antibody concentration; lower panel
T5 construct: also called cyno PD-L1
Description: (§1) 3.7. Cross-species binding assay: the cross-reactivity of the Ab to cynomolgus and murine PD-L1 was measured by ELISA. Human, cyno and mouse PD-L1 were coated on ELISA plates, respectively. After blocking, the humanized antibodies were added into the plate and incubated at room temperature for at least 2 hours. The binding of the antibodies to the coated antigens was detected by using goat anti-human IgG Fc-HRP. The color reaction was developed using TMB substrate and stopped by 2M HCl. The ELISA plates were analyzed at 450 nm using a Molecular Device M5e microplate reader.

[7] = target: T1, human PD-L1 expressed on cells (CHO / …); assay: FACS competition on human PD-L1 expressing CHO cells; blocked ligand: mouse Fc-tagged human PD-1; middle panel
cynomolgus monkey PD-L1 [8] = target: T5, cynomolgus monkey PD-L1; assay: ELISA, cynomolgus PD-L1 coated on the plate, OD450 against antibody concentration; upper panel
Description: as §1

murine PD-L1 [9] = target: T4, murine PD-L1; assay: ELISA, antigen coated on plate
Description: as §1

[10] = target: T1, human PD-L1 expressed on cells (CHO / …); assay: FACS competition on human PD-L1 expressing CHO cells; blocked ligand: mouse Fc-tagged human PD-1; top panel

T5 sequence (G7PSE7 entry or part of it limits assumed): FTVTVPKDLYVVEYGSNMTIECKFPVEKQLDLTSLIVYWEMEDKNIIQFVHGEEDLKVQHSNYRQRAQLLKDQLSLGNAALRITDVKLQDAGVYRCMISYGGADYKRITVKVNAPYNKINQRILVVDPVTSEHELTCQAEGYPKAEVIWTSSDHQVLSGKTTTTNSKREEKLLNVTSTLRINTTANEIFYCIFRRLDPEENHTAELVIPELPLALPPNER
T2 sequence (Q9NZQ7 19-238 limits assumed): as the sequence (G7PSE7 entry or part of it limits assumed) above, with T33A, S34A, N62S, Q68R, R82Q, L173F, A185T, I192T, L215H counted along it
T1 sequence (Q9NZQ7 19-290): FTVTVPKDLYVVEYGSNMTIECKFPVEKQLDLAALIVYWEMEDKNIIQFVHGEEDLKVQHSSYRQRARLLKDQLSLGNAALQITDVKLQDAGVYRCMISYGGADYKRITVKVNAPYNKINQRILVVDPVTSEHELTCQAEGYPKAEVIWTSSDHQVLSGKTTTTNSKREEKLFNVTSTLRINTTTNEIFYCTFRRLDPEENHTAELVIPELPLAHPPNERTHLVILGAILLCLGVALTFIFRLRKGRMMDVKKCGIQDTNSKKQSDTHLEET
T4 sequence (Q9EP73 19-239 limits assumed): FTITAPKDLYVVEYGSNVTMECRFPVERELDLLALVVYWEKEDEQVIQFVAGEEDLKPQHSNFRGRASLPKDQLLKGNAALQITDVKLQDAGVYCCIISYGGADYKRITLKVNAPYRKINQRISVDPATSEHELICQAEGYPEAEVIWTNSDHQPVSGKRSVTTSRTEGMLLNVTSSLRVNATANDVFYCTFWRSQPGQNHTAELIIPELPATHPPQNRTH

B1: 2.74.15.hAb8 (antibody, V domains shown)
VH: QVQLQESGPGLVKPSETLSLTCTVSGYSITSGYIWHWIRQPPGKGLEWIGYIHYSGTTDFNPSLESRVTISVDTSKNQFSLKLSSVTAADTAVYYCAREGRSYGGFAYWGQGTLVTVSS
VL: DIQMTQSPSSLSASVGDRVTITCKASQSVSNGVAWYQQKPGKVPKLLIYYASNRFTGVPSRFSGSGSGTDFTLTISSLQPEDVATYYCQQDYSSPFTFGQGTKLEIK
notes: Humanized antibody with a human constant region of IgG4 isotype
For B1, the EC50 [1] was 1.17 nM, the Kd (recombinant human PD-L1) was 0.0676 nM and the koff (recombinant human PD-L1) was 5.48e-05 s⁻¹. The kon (recombinant human PD-L1) was 811000 M⁻¹ s⁻¹, the binding result [2] was “no binding” and the IC50 [3] was 0.196 nM. The EC50 [4] was 2.52 nM, the binding result (murine PD-L1 [5]) was “no binding” and the EC50 (cynomolgus monkey PD-L1 [6]) was 0.0524 nM.

B2: 2.74.15.hAb7 (antibody, V domains shown)
VH: QVQLQESGPGLVKPSETLSLTCTVSGYSITSGYIWHWIRQPPGKGLEWIGYIHYSGTTDFNPSLESRVTISVDTSKNQFSLKLSSVTAADTAVYYCAREGRSYGGFAYWGQGTLVTVSS
VL: DIQLTQSPSFLSASVGDRVTITCKASQSVSNGVAWYQQKPGKAPKLLIYYASNRFTGVPSRFSGSGSGTEFTLTISSLQPEDFATYYCQQDYSSPFTFGQGTKLEIK
notes: as for B1
B2 gave an EC50 [1] of 1.18 nM, a Kd (recombinant human PD-L1) of 0.155 nM and a koff (recombinant human PD-L1) of 0.000146 s⁻¹. For the same binder, the kon (recombinant human PD-L1) was 938000 M⁻¹ s⁻¹, the binding result [2] was “no binding” and the IC50 [3] was 0.199 nM. The EC50 [4] was 2.53 nM, the binding result (murine PD-L1 [5]) was “no binding” and the EC50 (cynomolgus monkey PD-L1 [6]) was 0.000721 nM.

B3: 2.74.15.hAb5 (antibody, V domains shown)
VH: QVQLQESGPGLVKPSETLSLTCTVTGYSITSGYIWHWIRQPAGKGLEWIGYIHYSGTTDFNPSLESRVTISVDTSKNQFSLKLSSVTAADTAVYYCAREGRSYGGFAYWGQGTLVTVSS
VL: DIQLTQSPSFLSASVGDRVTITCKASQSVSNGVAWYQQKPGKAPKLLIYYASNRFTGVPSRFSGSGSGTEFTLTISSLQPEDFATYYCQQDYSSPFTFGQGTKLEIK
notes: as for B1
With B3 the IC50 [7] was 0.15 nM, the EC50 [1] was 1.11 nM and the Kd (recombinant human PD-L1) was 0.106 nM. The koff (recombinant human PD-L1) was 0.000135 s⁻¹, the kon (recombinant human PD-L1) was 1.27e+06 M⁻¹ s⁻¹ and the binding result [2] was “no binding”. The EC50 (cynomolgus monkey PD-L1 [8]) was 0.026 nM, the EC50 [4] was 2 nM and the binding result (murine PD-L1 [5]) was “no binding”.

B4: 2.74.15.hAb6 (antibody, V domains shown)
VH: QVQLQESGPGLVKPSETLSLTCTVTGYSITSGYIWHWIRQPAGKGLEWIGYIHYSGTTDFNPSLESRVTISVDTSKNQFSLKLSSVTAADTAVYYCAREGRSYGGFAYWGQGTLVTVSS
VL: DIQMTQSPSSLSASVGDRVTITCKASQSVSNGVAWYQQKPGKVPKLLIYYASNRFTGVPSRFSGSGSGTDFTLTISSLQPEDVATYYCQQDYSSPFTFGQGTKLEIK
notes: as for B1
Binder B4 has an IC50 [7] of 0.157 nM, an EC50 [1] of 1.08 nM and a Kd (recombinant human PD-L1) of 0.149 nM. For the same binder, the koff (recombinant human PD-L1) was 0.000172 s⁻¹, the kon (recombinant human PD-L1) was 1.16e+06 M⁻¹ s⁻¹ and the binding result [2] was “no binding”. For the same binder, the EC50 (cynomolgus monkey PD-L1 [8]) was 0.0238 nM, the EC50 [4] was 2.39 nM and the binding result (murine PD-L1 [5]) was “no binding”.

B5: 2.74.15.hAb4 (antibody, V domains shown)
VH: QVQLQESGPGLVKPSETLSLTCTVSGYSITSGYIWHWIRQPPGKGLEWIGYIHYSGTTDFNPSLESRVTISVDTSKNQFSLKLSSVTAADTAVYYCAREGRSYGGFAYWGQGTLVTVSA
VL: SFVMTQSPSSLSASVGDRVTITCKASQSVSNGVAWYQQKPGKVPKLLIYYASNRFTGVPSRFSGSGSGTDFTLTISSLQPEDVATYYCQQDYSSPFTFGSGTELEIK
notes: as for B1
In the case of B5, the EC50 [1] is reported as 1.53 nM, the binding result (murine PD-L1 [9]) is reported as “no binding” and the Kd (recombinant human PD-L1) is reported as 0.0389 nM. The koff (recombinant human PD-L1) was 2.83e-05 s⁻¹, the kon (recombinant human PD-L1) was 728000 M⁻¹ s⁻¹ and the binding result [2] was “no binding”. The EC50 (cynomolgus monkey PD-L1 [8]) was 0.00577 nM, the EC50 [4] was 1.82 nM and the IC50 [10] was 0.622 nM.
